Target: SARS-CoV-2 main protease (M^pro), commercial recombinant (rcM^pro) (SARS-CoV-2) (UniProt P0DTD1)
Test: enzyme inhibition assay

How did the Ki turn out when PPACK (D-Phe-Pro-Arg-CH2Cl) (peptide) was run?
The Ki was 160 nM.

Source: publication doi:10.1101/2024.09.05.611400
